Experimental data: patent publication US20260265360A1, “USE OF ANTI-FAM19A5 ANTAGONISTS FOR TREATING HEARING DISORDERS” (NEURACLE SCIENCE CO., LTD., priority 2023, published 2026)

How the values were obtained:
C57BL/6 mice = assay: Effect of anti-FAM19A5 antibody administration itself on hearing ability (ABR threshold); format: in vivo, mouse; details: 30 mg/kg i.v. once weekly; 2 weeks post antibody administration; no noise exposure
Description: FIGS. 5A, 5B, and 5C show the effect of FAM19A5 antagonist administration on hearing ability in mice. The effect on hearing was assessed by measuring auditory brainstem response (ABR) generated after FAM19A5 antagonist administration. FIG. 5A provides a schematic of the experimental design. As shown, anti-FAM19A5 antibody (1-30) or control human IgG antibody was administered to the mice intravenously once a week (30 mg/kg per dose). ABR (i.e., hearing test) was measured prior to the initial administration of the antibodies and then at day 1, week 2, and 8 week post antibody administration. FIG. 5B provides comparison of ABR threshold in the mice prior to the initial administration of the anti-FAM19A5 antibody (box) or the control IgG antibody (circle). […] In both FIGS. 5B and 5C, the ABR threshold was measured at a frequency ranging from 0 to 64 kHz.
To assess whether the administration of a FAM19A5 antagonist itself has any effect on hearing, C57BL/6 mice (8 weeks old) were intravenously administered with either an anti-FAM19A5 antibody (1-30 antibody) or a control human IgG antibody. […] To assess hearing, auditory brainstem response (ABR) threshold was measured prior to the initial antibody administration and then at day 1, 2 weeks, and 8 weeks post antibody administration.

[1] = system: noise-induced hearing loss mouse model; assay: Dosage effect in noise-induced hearing loss mouse model (ABR threshold); format: in vivo
Description: FIGS. 15A, 15B, 15C, 15D, and 15E show the dose-dependent effects of FAM19A5 antagonist administration on ABR threshold in a noise-induced hearing loss mouse model. FIG. 15A provides a schematic of the experimental design. As shown, one day after noise exposure, the animals received varying concentrations of the anti-FAM19A5 antibody (1-30) (i.e., 0 mg/kg, 3 mg/kg, 7 mg/kg, 15 mg/kg, and 30 mg/kg). After noise exposure, control animals received a human anti-IgG antibody (30 mg/kg). ABR threshold was measured at one day after noise exposure and at two weeks after noise exposure. FIG. 15B provides a comparison of ABR threshold for the different treatment groups across a frequency of 0 kHz to 64 kHz at one day after noise exposure. FIG. 15C provides the same data shown in FIG. 15B except as bar graphs. FIG. 15D provides a comparison of ABR threshold for the different treatment groups across a frequency of 0 kHz to 64 kHz at two weeks after noise exposure. FIG. 15E provides the same data shown in […] except as bar graphs. In each of FIGS. 15B-15E, ABR threshold prior to noise exposure is also shown (“BN”). In both FIGS. 15C and 15E, for each of the frequency groups shown, the first bar (from the left) corresponds to pre-noise exposure (“BN”), the second bar corresponds to animal streated with the control anti-IgG antibody (“hIgG”), the third bar corresponds to animals treated with 0 mg/kg of the anti-FAM19A5 antibody, the fourth bar corresponds to animals treated with 3 mg/kg of the anti-FAM19A5 antibody, the fifth bar corresponds to animals treated with 7 mg/kg of the anti-FAM19A5 antibody, the sixth bar corresponds to animals treated with 15 mg/kg of the anti-FAM19A5 antibody, and the last bar corresponds to animals treated with 30 mg/kg of the anti-FAM19A5 antibody.
To assess whether the above-described therapeutic effects of FAM19A5 antagonists on hearing loss is dose dependent, the noise-induced hearing loss mouse model described in Example 3 was used. […] ABR threshold was measured prior to noise exposure, one day after noise exposure, and two weeks after noise exposure.

aged mice = assay: Age-related hearing loss in aged mice; format: in vivo, mouse; details: for ABR threshold vs control animals: 30 mg/kg i.v. weekly for eight weeks
Description: FIGS. 17A, 17B, 17C, and 17D show the therapeutic effect of FAM19A5 antagonists (1-30) on auditory brainstem response (ABR) threshold in an aged mouse model. FIG. 17A provides a schematic of the experimental design. As shown, anti-FAM19A5 antibody (1-30) or control human IgG antibody was administered to the mice (1-year old) intravenously once a week (30 mg/kg per dose) for a total of eight administrations. ABR (i.e., hearing test) was measured both prior to the initial administration of the antibodies and then at one and two months after administration. FIG. 17B provides the results before injection. FIG. 17C provides the results at one month post administration. FIG. 17D provides the results at two months post administration. In each of FIGS. 16B-16D, ABR threshold was measured at a frequency ranging from 4 kHz to 64 kHz.
FIGS. 18A, 18B, and 18C show the therapeutic effect of FAM19A5 antagonists (1-30) as comparison of wave I amplitude profile in an aged mouse model. The mice were treated as shown and described in FIG. 17A. FIG. 18A provides the results before injection. FIG. 18B provides the results at one month post injection. FIG. 18C provides the results at two months post injection. Tone bursts were measured across 0 and 90 dB.
Next, to assess whether the FAM19A5 antagonists provided herein can also treat age-related hearing loss, aged mice (e.g., about 6 months to 1 year in age) were used. […] Then, various hearing parameters (e.g., ABR threshold, DPOAE amplitude, and ABR waveform analysis) were assessed in the animals at one and two months after initial administration.

B1: 1-30: anti-FAM19A5 antibody, de-immunized variant of 3-2; VH SEQ ID NO: 235, VL SEQ ID NO: 240 (antibody, V domains shown)
VH: AVTLDESGGGLQTPGGALRLSCKASGFDFESFNMFWVRQAPGKGLEYVSQISSSEEDENYAPAVKGRATISRDNGQSTLYLQMNSLRAEDTGTYYCAKSSYDCPYGHCSSGVDSAGEIDAWGHGTEVIVSS
VL: ALTQPSSVSANPGETVKITCSGGGSEEEQYYYGWYQQKPGSAPVTLIYQDEERPSDIPSRFSGSTSGSTATLTITGVQAGDEADYYCGSWDSEDEDHFGAGTTLTVL
modifications: Low-PI VH, 1-30 VH, 1-17 VH, 1-32 VH, 4-11 VH, 6-10 VH; 1-30 VL
- ABR threshold values vs control IgG antibody (C57BL/6 mice): remained comparable
- effect on ABR threshold by dose ([1]; one day post noise exposure, 15 mg/kg and 30 mg/kg): greatest effects
- ABR threshold across frequencies ([1]; one day post noise exposure, 1, 3, 7, 15, 30 mg/kg i.v.): dose-dependent reduction
- ABR threshold ([1]; two weeks post noise exposure, doses of 7, 15 or 30 mg/kg, many of the frequencies): significant reduction
- wave I amplitude vs control animals (aged mice; general trend, results not statistically significant): decreased wave I amplitude
- ABR threshold vs control animals (aged mice; one-month post administration): significantly decreased
- ABR threshold vs control animals (aged mice; two-month post administration): significantly decreased
